The text below walks through data of patent JP2014141434A (dated 2014).

Substitutions are numbered along the chain they refer to.

T1: ヒトROBO3 (human, UniProt Q96MS0 21-1386)
T1 construct: also called hROBO3; pCI−hROBO3
T1 sequence: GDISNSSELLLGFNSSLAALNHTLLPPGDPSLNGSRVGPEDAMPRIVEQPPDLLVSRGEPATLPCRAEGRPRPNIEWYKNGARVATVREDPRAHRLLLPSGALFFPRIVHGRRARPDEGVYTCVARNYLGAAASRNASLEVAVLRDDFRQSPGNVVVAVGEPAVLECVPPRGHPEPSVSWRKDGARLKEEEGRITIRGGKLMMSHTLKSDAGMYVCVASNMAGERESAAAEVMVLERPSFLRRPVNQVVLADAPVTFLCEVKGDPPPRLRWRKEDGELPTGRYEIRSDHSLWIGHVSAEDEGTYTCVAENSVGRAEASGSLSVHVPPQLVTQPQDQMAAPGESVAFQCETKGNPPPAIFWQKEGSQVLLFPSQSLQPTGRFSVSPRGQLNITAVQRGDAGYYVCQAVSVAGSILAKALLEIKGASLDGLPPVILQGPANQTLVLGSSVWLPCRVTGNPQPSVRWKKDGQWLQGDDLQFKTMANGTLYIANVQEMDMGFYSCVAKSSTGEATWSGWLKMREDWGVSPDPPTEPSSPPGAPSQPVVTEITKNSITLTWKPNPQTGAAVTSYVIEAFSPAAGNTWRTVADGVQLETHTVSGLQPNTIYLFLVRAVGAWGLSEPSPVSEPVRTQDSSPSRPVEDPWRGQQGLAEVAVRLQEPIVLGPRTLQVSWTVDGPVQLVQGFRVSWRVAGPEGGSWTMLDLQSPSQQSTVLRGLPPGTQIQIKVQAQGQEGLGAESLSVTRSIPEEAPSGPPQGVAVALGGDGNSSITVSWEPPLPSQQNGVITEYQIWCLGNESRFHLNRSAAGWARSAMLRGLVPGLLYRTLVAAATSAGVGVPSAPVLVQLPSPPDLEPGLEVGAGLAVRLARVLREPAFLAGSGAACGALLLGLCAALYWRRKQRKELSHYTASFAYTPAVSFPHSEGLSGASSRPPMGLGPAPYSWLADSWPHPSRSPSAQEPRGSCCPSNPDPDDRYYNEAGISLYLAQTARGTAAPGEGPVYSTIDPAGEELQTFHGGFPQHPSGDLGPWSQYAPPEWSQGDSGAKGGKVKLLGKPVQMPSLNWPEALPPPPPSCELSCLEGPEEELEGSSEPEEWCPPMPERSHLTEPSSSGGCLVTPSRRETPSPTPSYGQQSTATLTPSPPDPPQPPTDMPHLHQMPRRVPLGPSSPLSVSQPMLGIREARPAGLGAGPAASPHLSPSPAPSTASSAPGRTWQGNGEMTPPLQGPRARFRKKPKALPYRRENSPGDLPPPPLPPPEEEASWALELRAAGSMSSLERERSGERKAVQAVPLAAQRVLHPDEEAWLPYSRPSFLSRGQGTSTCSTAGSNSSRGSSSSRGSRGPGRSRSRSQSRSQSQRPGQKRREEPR

T2: ヒトROBO2 (human)
T2 construct: also called hROBO2; pCI−hROBO2
T2 chain: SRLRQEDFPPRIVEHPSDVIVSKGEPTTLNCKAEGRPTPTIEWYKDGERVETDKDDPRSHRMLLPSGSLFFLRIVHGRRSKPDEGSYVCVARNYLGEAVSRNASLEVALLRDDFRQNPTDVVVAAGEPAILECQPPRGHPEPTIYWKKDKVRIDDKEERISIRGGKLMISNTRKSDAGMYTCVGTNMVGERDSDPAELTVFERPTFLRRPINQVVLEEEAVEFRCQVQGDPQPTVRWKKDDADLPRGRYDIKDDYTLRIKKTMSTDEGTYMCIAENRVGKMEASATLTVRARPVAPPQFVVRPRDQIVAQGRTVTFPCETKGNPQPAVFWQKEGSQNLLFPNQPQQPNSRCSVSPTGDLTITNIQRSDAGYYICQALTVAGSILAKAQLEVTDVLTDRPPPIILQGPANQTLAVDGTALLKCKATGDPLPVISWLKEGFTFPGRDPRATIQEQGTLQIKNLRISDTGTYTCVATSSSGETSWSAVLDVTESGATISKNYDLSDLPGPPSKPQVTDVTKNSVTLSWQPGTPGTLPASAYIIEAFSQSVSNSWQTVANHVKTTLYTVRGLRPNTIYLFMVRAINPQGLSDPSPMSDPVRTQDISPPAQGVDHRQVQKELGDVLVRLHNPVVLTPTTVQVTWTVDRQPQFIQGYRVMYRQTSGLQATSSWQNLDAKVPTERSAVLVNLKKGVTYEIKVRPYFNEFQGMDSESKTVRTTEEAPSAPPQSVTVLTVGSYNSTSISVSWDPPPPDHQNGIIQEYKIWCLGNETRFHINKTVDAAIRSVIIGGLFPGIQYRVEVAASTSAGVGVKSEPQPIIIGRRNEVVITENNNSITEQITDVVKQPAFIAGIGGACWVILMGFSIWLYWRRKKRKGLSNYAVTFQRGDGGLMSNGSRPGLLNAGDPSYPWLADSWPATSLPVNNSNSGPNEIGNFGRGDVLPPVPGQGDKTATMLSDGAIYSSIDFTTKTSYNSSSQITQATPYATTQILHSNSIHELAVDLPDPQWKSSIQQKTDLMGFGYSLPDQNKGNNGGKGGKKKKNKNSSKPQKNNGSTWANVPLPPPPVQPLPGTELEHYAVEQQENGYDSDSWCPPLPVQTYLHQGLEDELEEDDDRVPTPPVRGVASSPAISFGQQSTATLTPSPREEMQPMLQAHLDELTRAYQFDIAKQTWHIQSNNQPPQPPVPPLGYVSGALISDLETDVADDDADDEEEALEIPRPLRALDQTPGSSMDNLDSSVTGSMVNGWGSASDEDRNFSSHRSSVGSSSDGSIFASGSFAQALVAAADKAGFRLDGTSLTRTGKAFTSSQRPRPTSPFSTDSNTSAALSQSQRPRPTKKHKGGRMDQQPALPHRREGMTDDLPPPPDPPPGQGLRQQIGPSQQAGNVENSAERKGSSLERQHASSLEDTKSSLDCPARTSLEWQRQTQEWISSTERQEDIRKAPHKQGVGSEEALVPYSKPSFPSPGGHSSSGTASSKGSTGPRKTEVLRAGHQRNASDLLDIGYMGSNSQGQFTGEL

B1: 抗ROBO4マウスモノクローナル抗体 MAb1 (antibody, V domains shown)
VH: EVQLVESGGGLVKPGGSLKLSCAASGFTFSTYAMSWVRQTPEKRLEWVATISNGGTYTYYPDSVKGRFTISRDNAENTLYLQMSSLRSEDTAMYFCARLIYYDYLDYWGHGTTLTVSS
VL: DAVMTQTPLSLPVSLGDQASISCRSSQSLENSNGNTYLNWYFQKPGQSPQLLIYRVSNRFSGVLDRFSGSGSGTDFTLKISRVEAEDFGVYFCLQVTHVPWTFGGGTKLEIKR
notes: Mouse IgG1 (gamma 1) / kappa from a hybridoma; The constant regions are not in the listing; also called MAb1
B2: ヒト化MAb1抗体 H−2143 (antibody, human IgG2, kappa, V domains shown)
VH: EVQLVESGGGLVQPGGSLRLSCAASGFTFSTYAMSWVRQAPGKRLEWVATISQGGTYTYYPDSVKGRFTISRDNAKNTLYLQMNSLRAEDTAVYYCARLIYYDYLDYWGQGTLVTVSS
VL: DIVMTQSPLSLPVTLGEPASISCRSSQSLENENKNLYLNWYLQKPGQSPQLLIYRVSNRFSGVPDRFSGSGSGTDFTLKISRVEAEDVGVYYCLQVTHVPWTFGPGTKVDIKR
notes: Humanised IgG2 / kappa; also called H-2143; hMAb1-H4 / hMAb1-L2
B3: ヒト化MAb1抗体 H−2140 (antibody, human IgG2, kappa, V domains shown)
VH: B2 VH
VL: B2 VL with E32S, K34G, L36T
notes: Humanised IgG2 / kappa; also called H-2140; hMAb1-H4 / hMAb1-L1
B4: ヒト化MAb1抗体 H−1143 (antibody, human IgG2, kappa, V domains shown)
VH: B2 VH with R44G
VL: B2 VL
notes: Humanised IgG2 / kappa; also called H-1143; hMAb1-H2 / hMAb1-L2

For the first assay, the target named is T1, ヒトROBO3. Description: flow cytometry, transfected HEK293 cells. For orientation: Flow cytometry measures light scatter and fluorescence of single cells or particles in a stream.
As to B1, the binding result is given as “no binding (tested: 10 μg/mL)”.

With B2, the binding result was “no binding (tested: 10 μg/mL (method of 4)-4-2))”.

Regarding B3, the binding result is recorded as “no binding (tested: 10 μg/mL (method of 4)-4-2))”.

As to B4, the binding result is listed as “no binding (tested: 10 μg/mL (method of 4)-4-2))”.

For a further assay, the target named is T3, N末端FLAG−tag付加型ヒトROBO1 (human, UniProt Q9Y6N7 58-1651).
T3 construct: also called hROBO1; pCI−FLAG−hROBO1
T3 sequence (Q9Y6N7 other isoform, or with tags, fused parts or gaps): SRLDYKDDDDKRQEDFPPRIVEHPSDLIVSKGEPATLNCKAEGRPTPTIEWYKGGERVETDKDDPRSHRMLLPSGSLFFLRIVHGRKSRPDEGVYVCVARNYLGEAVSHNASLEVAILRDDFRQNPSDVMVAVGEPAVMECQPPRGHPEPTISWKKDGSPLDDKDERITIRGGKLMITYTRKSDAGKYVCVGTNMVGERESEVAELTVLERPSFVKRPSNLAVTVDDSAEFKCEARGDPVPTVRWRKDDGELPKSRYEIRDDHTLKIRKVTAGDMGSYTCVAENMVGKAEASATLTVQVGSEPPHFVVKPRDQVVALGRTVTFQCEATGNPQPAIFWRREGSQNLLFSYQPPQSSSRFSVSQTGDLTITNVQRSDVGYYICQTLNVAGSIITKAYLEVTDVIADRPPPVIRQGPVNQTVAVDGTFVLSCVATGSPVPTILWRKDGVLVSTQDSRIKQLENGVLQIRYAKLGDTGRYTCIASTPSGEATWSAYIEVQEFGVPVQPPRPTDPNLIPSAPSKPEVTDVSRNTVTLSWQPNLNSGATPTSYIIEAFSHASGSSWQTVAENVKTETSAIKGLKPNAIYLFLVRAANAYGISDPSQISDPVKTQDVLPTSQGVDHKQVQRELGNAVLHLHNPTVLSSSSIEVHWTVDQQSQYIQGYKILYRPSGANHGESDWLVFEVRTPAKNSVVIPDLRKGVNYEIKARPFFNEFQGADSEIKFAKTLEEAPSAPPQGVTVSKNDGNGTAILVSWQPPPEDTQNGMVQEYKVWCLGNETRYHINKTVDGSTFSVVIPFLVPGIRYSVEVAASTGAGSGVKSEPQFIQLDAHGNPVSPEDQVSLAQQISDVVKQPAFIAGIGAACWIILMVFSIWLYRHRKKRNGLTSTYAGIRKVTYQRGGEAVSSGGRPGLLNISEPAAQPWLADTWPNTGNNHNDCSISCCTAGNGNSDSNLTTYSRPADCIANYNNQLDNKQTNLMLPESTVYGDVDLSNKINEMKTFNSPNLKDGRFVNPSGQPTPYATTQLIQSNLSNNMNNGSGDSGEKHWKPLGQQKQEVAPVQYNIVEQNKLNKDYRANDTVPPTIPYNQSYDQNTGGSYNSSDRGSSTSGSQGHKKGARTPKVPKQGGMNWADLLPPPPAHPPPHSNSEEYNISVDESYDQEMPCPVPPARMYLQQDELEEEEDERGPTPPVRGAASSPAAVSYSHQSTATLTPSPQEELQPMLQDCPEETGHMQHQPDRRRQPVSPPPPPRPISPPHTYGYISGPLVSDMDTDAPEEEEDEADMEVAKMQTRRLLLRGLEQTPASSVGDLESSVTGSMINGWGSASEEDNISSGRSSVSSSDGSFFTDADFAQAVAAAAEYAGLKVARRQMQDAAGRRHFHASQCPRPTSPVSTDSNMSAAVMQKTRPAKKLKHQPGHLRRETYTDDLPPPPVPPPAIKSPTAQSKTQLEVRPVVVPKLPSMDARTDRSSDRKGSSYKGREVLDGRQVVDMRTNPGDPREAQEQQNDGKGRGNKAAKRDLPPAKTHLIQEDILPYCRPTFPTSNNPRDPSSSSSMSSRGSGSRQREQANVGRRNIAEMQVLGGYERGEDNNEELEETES
As to the kind of experiment: flow cytometry, transfected HEK293 cells.
Turning to B1, the binding result is reported as “no binding (tested: 10 μg/mL)”.

Consider B2, for which the binding result is “no binding (tested: 10 μg/mL (method of 4)-4-2))”.

Regarding B3, the binding result is “no binding (tested: 10 μg/mL (method of 4)-4-2))”.

Take B4: the binding result is recorded as “no binding (tested: 10 μg/mL (method of 4)-4-2))”.

The next assay deals with T2, ヒトROBO2. As to the kind of experiment: flow cytometry, transfected HEK293 cells.
As to B1, the binding result is on record as “no binding (tested: 10 μg/mL)”.

Consider B2, for which the binding result was “no binding (tested: 10 μg/mL (method of 4)-4-2))”.

On to B3, for which the binding result is on record as “no binding (tested: 10 μg/mL (method of 4)-4-2))”.

Regarding B4, the binding result was “no binding (tested: 10 μg/mL (method of 4)-4-2))”.
